Experimental data reported in patent US20220332795A1 (ARO BIOTHERAPEUTICS, published 2022).

Tests used:
[1] = biological target: T1, human CD71 extracellular domain (human, UniProt P02786 89-760, biotinylated); experiment: solution ELISA screen (luminescence)
T1 construct: extracellular domain; also called hCD71; huCD71 ECD

CD71 apical domain [2] = biological target: T2, CD71 apical domain (human, UniProt P02786 189-383, limits assumed); experiment: solution ELISA screen (luminescence)
T2 construct: domain: apical domain

[3] = biological target: T1, human CD71 extracellular domain; experiment: solution ELISA screen, signal ratio to HSA control
CD71 apical domain [4] = biological target: T2, CD71 apical domain; experiment: solution ELISA screen, signal ratio to HSA control

T1 sequence (P02786 other isoform, or with tags, fused parts or gaps): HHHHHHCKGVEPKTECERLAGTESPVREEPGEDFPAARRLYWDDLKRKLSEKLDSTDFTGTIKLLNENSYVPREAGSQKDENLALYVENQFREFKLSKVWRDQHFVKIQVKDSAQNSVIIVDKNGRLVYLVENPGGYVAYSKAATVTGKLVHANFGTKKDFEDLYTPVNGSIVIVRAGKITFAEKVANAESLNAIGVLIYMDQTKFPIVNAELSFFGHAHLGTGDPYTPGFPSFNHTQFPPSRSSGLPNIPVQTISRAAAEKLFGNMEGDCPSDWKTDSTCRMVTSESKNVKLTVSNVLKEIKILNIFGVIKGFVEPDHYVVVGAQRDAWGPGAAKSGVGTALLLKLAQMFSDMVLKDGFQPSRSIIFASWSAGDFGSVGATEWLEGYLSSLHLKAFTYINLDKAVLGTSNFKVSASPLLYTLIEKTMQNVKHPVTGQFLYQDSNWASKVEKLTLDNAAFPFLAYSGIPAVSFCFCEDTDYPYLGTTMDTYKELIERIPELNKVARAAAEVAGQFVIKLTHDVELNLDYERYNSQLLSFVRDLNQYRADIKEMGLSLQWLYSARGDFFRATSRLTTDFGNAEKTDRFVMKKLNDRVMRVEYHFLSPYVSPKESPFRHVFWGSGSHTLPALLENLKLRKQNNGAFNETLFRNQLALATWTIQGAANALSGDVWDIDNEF
T2 sequence (P02786 189-383 limits assumed): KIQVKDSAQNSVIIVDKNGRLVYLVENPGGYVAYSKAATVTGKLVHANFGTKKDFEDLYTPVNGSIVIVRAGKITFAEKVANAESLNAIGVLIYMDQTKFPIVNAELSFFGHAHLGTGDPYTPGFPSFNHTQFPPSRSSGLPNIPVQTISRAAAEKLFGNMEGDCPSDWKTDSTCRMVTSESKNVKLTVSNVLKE

Row | Binder | RLU [1] [RLU] | RLU (CD71 apical domain [2]) [RLU] | hCD71:HSA [3] [ratio] | apical domain:HSA (CD71 apical domain [4]) [ratio]
1 | SEQ ID NO 240 (designed binder, not shown: small tags and cut ends) MLPAPKNLVVSRVTEDSARLSWTAPDAAFDSFYIAYAEPRPDGEAISLSVPGSERSYDLTGLKPGTEYSVLIHGVKGGLLSSPLHAKFTT | 610000 | 5.26e+06 | 33.9 | 292
2 | SEQ ID NO 242 (designed binder, not shown: small tags and cut ends) MLPAPKNLVVSRVTEDSARLSWTAPDAAFDSFYIAYAEPRPDGEAIQLLVPGSERSYDLTGLKPGTEYSVLIHGVKGGLLSSPLYAAFTT | 648000 | 4.9e+06 | 31.9 | 241
3 | SEQ ID NO 244 (designed binder, not shown: small tags and cut ends) MLPAPKNLVVSRVTEDSARLSWTAPDAAFDSFYIAYAEPRPDGEAISLQVPGSERSYDLTGLKPGTEYSVLIHGVKGGLLSSPLGAHFTT | 1.75e+06 | 5.93e+06 | 97.1 | 329
4 | SEQ ID NO 245 (designed binder, not shown: small tags and cut ends) MLPAPKNLVVSRVTEDSARLSWTAPDAAFDSFYIAYAEPRPDGEAIALWVPGSERSYDLTGLKPGTEYSVLIHGVKGGLLSSPLVASFTT | 774000 | 4.77e+06 | 41.9 | 259
5 | SEQ ID NO 246 (designed binder, not shown: small tags and cut ends) MLPAPKNLVVSRVTEDSARLSWTAPDAAFDSFYIAYAEPRPDGEAIQLHVPGSERSYDLTGLKPGTEYSVLIHGVKGGLLSSPLYAFFTT | 548000 | 47500 | 21.3 | 1.8
6 | SEQ ID NO 247 (designed binder, not shown: small tags and cut ends) MLPAPKNLVVSRVTEDSARLSWTAPDAAFDSFYIAYAEPRPDGEAILLHVPGSERSYDLTGLKPGTEYSVLIHGVKGGLLSSPLRASFTT | 4.3e+06 | 7.51e+06 | 226 | 394
7 | SEQ ID NO 248 (designed binder, not shown: small tags and cut ends) MLPAPKNLVVSRVTEDSARLSWTAPDAAFDSFYIAYAEPRPDGEAIWLGVPGSERSYDLTGLKPGTEYSVLIHGVKGGLLSSPLHATFTT | 756000 | 5.45e+06 | 22.2 | 160
8 | SEQ ID NO 249 (designed binder, not shown: small tags and cut ends) MLPAPKNLVVSRVTEDSARLSWTAPDAAFDSFYIAYAEPRPDGEAIVLEVPGSERSYDLTGLKPGTEYSVLIHGVKGGLLSSPLHANFTT | 4.94e+06 | 7.43e+06 | 205 | 308
9 | SEQ ID NO 250 (designed binder, not shown: small tags and cut ends) MLPAPKNLVVSRVTEDSARLSWTAPDAAFDSFYIAYAEPRPDGEAILLRVPGSERSYDLTGLKPGTEYSVLIHGVKGGLLSSPLYAKFTT | 724000 | 5.54e+06 | 15 | 114
10 | SEQ ID NO 252 (designed binder, not shown: small tags and cut ends) MLPAPKNLVVSRVTEDSARLSWTAPDAAFDSFYIAYAEPRPDGEAIVLHVPGSERSYDLTGLKPGTEYSVLIHGVKGGLLSSPLDAFFTT | 4.34e+06 | 7.57e+06 | 59.6 | 104
11 | SEQ ID NO 253 (designed binder, not shown: small tags and cut ends) MLPAPKNLVVSRVTEDSARLSWTAPDAAFDSFYIAYAEPRPDGEAIILHVPGSERSYDLTGLKPGTEYSVLIHGVKGGLLSSPLDAYFTT | 3.47e+06 | 7.21e+06 | 92 | 191
12 | SEQ ID NO 254 (designed binder, not shown: small tags and cut ends) MLPAPKNLVVSRVTEDSARLSWTAPDAAFDSFYIAYAEPRPDGEAILLAVPGSERSYDLTGLKPGTEYSVLIHGVKGGLLSSPLSAKFTT | 2.24e+06 | 6.62e+06 | 104 | 308
13 | SEQ ID NO 255 (designed binder, not shown: small tags and cut ends) MLPAPKNLVVSRVTEDSARLSWTAPDAAFDSFFIGYLEPQPPGEAILLFVPGSERSYDLTGLKPGTEYNVTIQGVKGGFPSTPLSASFTT | 5.02e+06 | 7.08e+06 | 49.1 | 69.3
14 | SEQ ID NO 256 (designed binder, not shown: small tags and cut ends) MLPAPKNLVVSRVTEDSARLSWTAPDAAFDSFYIAYAEPRPDGEAIQLTVPGSERSYDLTGLKPGTEYSVLIHGVKGGLLSSPLHAYFTT | 2.07e+06 | 5.84e+06 | 27.2 | 76.7
15 | SEQ ID NO 257 (designed binder, not shown: small tags and cut ends) MLPAPKNLVVSRVTEDSARLSWTAPDAAFDSFYIAYAEPRPDGEAIQLGVPGSERSYDLTGLKPGTEYSVLIHGVKGGLLSSPLRAYFTT | 802000 | 4.84e+06 | 26.9 | 162
16 | SEQ ID NO 258 (designed binder, not shown: small tags and cut ends) MLPAPKNLVVSRVTEDSARLSWTAPDAAFDSFYIAYAEPRPDGEAILLEVPGSERSYDLTGLKPGTEYSVLIHGVKGGLLSSPLVAFFTT | 5.4e+06 | 7.34e+06 | 204 | 277
17 | SEQ ID NO 259 (designed binder, not shown: small tags and cut ends) MLPAPKNLVVSRVTEDSARLSWTAPDAAFDSFYIAYAEPRPDGEAIQLGVPGSERSYDLTGLKPGTEYSVLIHGVKGGLLSSPLLAVFTT | 1.26e+06 | 5.96e+06 | 49.7 | 235
18 | SEQ ID NO 260 (designed binder, not shown: small tags and cut ends) MLPAPKNLVVSRVTEDSARLSWTAPDAAFDSFYIAYAEPRPDGEAIHLRVPGSERSYDLTGLKPGTEYNVTIQGVKGGFPSMPLSAIFTT | 4.88e+06 | 7.05e+06 | 146 | 211
19 | SEQ ID NO 261 (designed binder, not shown: small tags and cut ends) MLPAPKNLVVSRVTEDSARLSWTAPDAAFDSFYIAYAEPRPDGEAILLQVPGSERSYDLTGLKPGTEYSVLIHGVKGGLLSSPLIAKFTT | 2.39e+06 | 93200 | 13.7 | 0.5
20 | SEQ ID NO 262 (designed binder, not shown: small tags and cut ends) MLPAPKNLVVSRVTEDSARLSWTAPDAAFDSFYIAYAEPRPDGEAIVLHVPGSERSYDLTGLKPGTEYSVLIHGVKGGLLSSPLQAIFTT | 3.94e+06 | 7.13e+06 | 128 | 231
21 | SEQ ID NO 263 (designed binder, not shown: small tags and cut ends) MLPAPKNLVVSRVTEDSARLSWTAPDAAFDSFYIAYAEPRPDGEAIALVVPGSERSYDLTGLKPGTEYSVLIHGVKGGLLSSPLAANFTT | 584000 | 4.37e+06 | 24.5 | 184
22 | SEQ ID NO 264 (designed binder, not shown: small tags and cut ends) MLPAPKNLVVSRVTEDSARLSWTAPDAAFDSFYIAYAEPRPDGEAINLSVPGSERSYDLTGLKPGTEYSVLIHGVKGGLLSSPLDAYFTT | 368000 | 4.32e+06 | 15.1 | 177
23 | SEQ ID NO 265 (designed binder, not shown: small tags and cut ends) MLPAPKNLVVSRVTEDSARLSWTAPDAAFDSFYIAYAEPRPDGEAIVLEVPGSERSYDLTGLKPGTEYSVLIHGVKGGLLSSPLTASFTT | 5.77e+06 | 7.21e+06 | 188 | 235
24 | SEQ ID NO 266 (designed binder, not shown: small tags and cut ends) MLPAPKNLVVSRVTEDSARLSWTAPDAAFDSFYIAYAEPRPDGEAIRLQVPGSERSYDLTGLKPGTEYSVLIHGVKGGLLSSPLGASFTT | 418000 | 4.23e+06 | 11.6 | 117
25 | SEQ ID NO 267 (designed binder, not shown: small tags and cut ends) MLPAPKNLVVSRVTEDSARLSWTAPDAAFDSFYIAYAEPRPDGEAIGLWVPGSERSYDLTGLKPGTEYSVLIHGVKGGLLSSPLVAYFTT | 573000 | 5.55e+06 | 19.2 | 186
26 | SEQ ID NO 269 (designed binder, not shown: small tags and cut ends) MLPAPKNLVVSRVTEDSARLSWTAPDAAFDSFYIAYAEPRPDGEAIWLDVPGSERSYDLTGLKPGTEYSVLIHGVKGGLLSSPLDAYFTT | 812000 | 5.56e+06 | 40.8 | 279
27 | SEQ ID NO 243 (designed binder, not shown: small tags and cut ends) MLPAPKNLVVSRVTEDSARLSWTAPDAAFDSFFIGYLEPQPPGEAIHLAVPGSERSYDLTGLKPGTEYNVTIQGVKGGFPSVPLAAVFTT | 1.97e+06 | 3.19e+06 | 63.8 | 103
28 | SEQ ID NO 251 (designed binder, not shown: small tags and cut ends) MLPAPKNLVVSRVTEDSARLSWTAPDAAFDSFFIGYLEPQPPGEAIGLWVPGSERSYDLTGLKPGTEYNVTIQGVKGGFPSDPLQAVFTT | 2.51e+06 | 5.73e+06 | 96.1 | 220
29 | SEQ ID NO 213 (designed binder, not shown: small tags and cut ends) MLPAPKNLVVSRVTEDSARLSWTAPDAAFDSFYIAYAEPRPDGEAILLGVPGSERSYDLTGLKPGTEYSVLIHGVKGGLLSSPLFTT | 1.73e+06 | 2.03e+06 | 24.6 | 28.9
